Source: patent US20130012436A1 (Bristol-Myers Squibb, published 2013)

How the values were obtained:
rat serum albumin = rat serum albumin (rat, UniProt P02770 25-608); test: SPR and direct binding ELISA
rhesus serum albumin [1] = target: T1, rhesus serum albumin (rhesus, UniProt Q28522 17-600); test: SPR, HBS-P buffer, 37 C
T1 construct: also called RhSA

human serum albumin [2] = target: T2, human serum albumin (human, UniProt P02768 25-609); test: SPR, HBS-P buffer, 37 C
T2 construct: also called HSA

rhesus serum albumin [3] = target: T1, rhesus serum albumin; test: SPR, MES buffer, pH 7.4
human serum albumin [4] = target: T2, human serum albumin; test: SPR, MES buffer, pH 7.4
rhesus serum albumin [5] = target: T1, rhesus serum albumin; test: SPR, HBS-P buffer
human serum albumin [6] = target: T2, human serum albumin; test: SPR, HBS-P buffer
rhesus serum albumin [7] = target: T1, rhesus serum albumin; test: SPR, HBS-P buffer, 25 C
murine serum albumin = target: T3, murine serum albumin (mouse, UniProt P07724 25-608); test: SPR, HBS-P buffer, 25 C
T3 construct: also called MuSA; mouse serum albumin

human serum albumin [8] = target: T2, human serum albumin; test: SPR, HBS-P buffer, 25 C
rhesus serum albumin [9] = target: T1, rhesus serum albumin; test: SPR, MES buffer, pH 5.5
human serum albumin [10] = target: T2, human serum albumin; test: SPR, MES buffer, pH 5.5

T2 sequence (P02768 25-609 limits assumed): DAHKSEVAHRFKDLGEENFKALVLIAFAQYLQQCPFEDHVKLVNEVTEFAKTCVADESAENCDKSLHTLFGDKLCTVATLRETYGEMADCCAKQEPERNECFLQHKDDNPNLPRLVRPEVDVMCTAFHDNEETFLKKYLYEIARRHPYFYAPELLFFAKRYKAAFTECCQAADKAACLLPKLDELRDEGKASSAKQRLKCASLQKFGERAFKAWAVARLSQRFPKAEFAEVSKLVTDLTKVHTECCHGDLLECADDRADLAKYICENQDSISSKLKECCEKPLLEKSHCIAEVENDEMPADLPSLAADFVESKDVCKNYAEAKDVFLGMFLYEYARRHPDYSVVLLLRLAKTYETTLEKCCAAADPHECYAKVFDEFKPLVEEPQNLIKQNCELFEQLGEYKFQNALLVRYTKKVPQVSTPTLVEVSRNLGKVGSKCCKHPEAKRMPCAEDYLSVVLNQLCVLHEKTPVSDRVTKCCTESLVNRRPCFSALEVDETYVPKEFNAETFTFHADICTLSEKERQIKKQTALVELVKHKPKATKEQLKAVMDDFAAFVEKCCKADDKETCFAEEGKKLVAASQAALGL
T1 sequence (Q28522 17-600 limits assumed): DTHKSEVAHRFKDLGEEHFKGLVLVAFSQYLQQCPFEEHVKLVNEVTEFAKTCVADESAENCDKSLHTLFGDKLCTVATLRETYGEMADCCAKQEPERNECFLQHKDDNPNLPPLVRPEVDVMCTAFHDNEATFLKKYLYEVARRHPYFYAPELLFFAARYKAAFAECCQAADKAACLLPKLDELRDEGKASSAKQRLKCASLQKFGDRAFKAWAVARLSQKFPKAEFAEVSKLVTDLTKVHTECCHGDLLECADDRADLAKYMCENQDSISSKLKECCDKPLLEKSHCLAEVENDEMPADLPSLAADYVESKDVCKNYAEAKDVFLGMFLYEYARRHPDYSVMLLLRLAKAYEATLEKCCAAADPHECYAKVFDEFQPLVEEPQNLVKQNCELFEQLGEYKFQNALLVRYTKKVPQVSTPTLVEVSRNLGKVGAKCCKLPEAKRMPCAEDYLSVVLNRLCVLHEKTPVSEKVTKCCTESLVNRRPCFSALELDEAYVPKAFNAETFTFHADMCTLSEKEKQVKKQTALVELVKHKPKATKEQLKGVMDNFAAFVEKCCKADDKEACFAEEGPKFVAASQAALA
rat serum albumin, sequence (P02770 25-608 limits assumed): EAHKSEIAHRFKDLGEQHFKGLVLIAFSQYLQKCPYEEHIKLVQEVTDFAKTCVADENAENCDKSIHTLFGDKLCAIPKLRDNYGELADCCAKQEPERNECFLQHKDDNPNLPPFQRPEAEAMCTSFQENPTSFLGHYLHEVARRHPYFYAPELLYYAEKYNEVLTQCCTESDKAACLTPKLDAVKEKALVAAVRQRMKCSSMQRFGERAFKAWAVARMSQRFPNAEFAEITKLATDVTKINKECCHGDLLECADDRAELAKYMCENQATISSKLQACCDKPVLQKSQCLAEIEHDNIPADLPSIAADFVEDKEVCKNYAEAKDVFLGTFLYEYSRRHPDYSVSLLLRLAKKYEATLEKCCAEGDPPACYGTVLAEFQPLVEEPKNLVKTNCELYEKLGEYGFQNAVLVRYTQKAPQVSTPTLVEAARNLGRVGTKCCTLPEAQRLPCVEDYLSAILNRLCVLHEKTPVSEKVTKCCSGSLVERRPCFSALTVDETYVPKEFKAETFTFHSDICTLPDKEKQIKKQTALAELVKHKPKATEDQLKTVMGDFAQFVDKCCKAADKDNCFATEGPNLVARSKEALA

binding result (rat serum albumin): no binding (tested: 1 µM)
Kd (rhesus serum albumin [1]): 977 nM
koff (rhesus serum albumin [1]): 0.0185 s⁻¹
kon (rhesus serum albumin [1]): 18900 M⁻¹ s⁻¹
Kd (human serum albumin [2]): 24.1 nM
koff (human serum albumin [2]): 0.000815 s⁻¹
kon (human serum albumin [2]): 33800 M⁻¹ s⁻¹
Kd (rhesus serum albumin [3]): 479 nM
koff (rhesus serum albumin [3]): 0.00295 s⁻¹
kon (rhesus serum albumin [3]): 6160 M⁻¹ s⁻¹
Kd (human serum albumin [4]): 41.9 nM
koff (human serum albumin [4]): 0.000388 s⁻¹
kon (human serum albumin [4]): 9260 M⁻¹ s⁻¹
affinity at 37 C relative to 25 C (rhesus serum albumin [5]): 0.5 fold
fold increase in affinity at 37 C against 25 C (human serum albumin [6]): ~2 fold
Kd (rhesus serum albumin [7]): 580 nM
koff (rhesus serum albumin [7]): 0.00378 s⁻¹
kon (rhesus serum albumin [7]): 6600 M⁻¹ s⁻¹
binding result (murine serum albumin): no binding (tested: up to 1 µM)
Kd (human serum albumin [8]): 55.3 nM
koff (human serum albumin [8]): 0.000443 s⁻¹
kon (human serum albumin [8]): 8210 M⁻¹ s⁻¹
Kd (rhesus serum albumin [9]): 359 nM
koff (rhesus serum albumin [9]): 0.00272 s⁻¹
kon (rhesus serum albumin [9]): 7570 M⁻¹ s⁻¹
Kd (human serum albumin [10]): 28.6 nM
koff (human serum albumin [10]): 0.00027 s⁻¹
kon (human serum albumin [10]): 9440 M⁻¹ s⁻¹
B1: SABA1.2 (designed binder)
chain: MGVSDVPRDLEVVAATPTSLLISWHSYYEQNSYYRITYGETGGNSPVQEFTVPYSQTTATISGLKPGVDYTITVYAVYGSKYYYPISINYRTEIEDEDEDEDED
notes: core 1 with (ED)5 extension
